Here are results for 1 molecule from article PMC10330758 (DNA repair, 2023).

For this assay, the target named is N-terminally his-tagged human DHX9 (human, UniProt Q08211 1-1270). The assay can be described thus: pull-down.
Chain of N-terminally his-tagged human DHX9 (Q08211 whole entry): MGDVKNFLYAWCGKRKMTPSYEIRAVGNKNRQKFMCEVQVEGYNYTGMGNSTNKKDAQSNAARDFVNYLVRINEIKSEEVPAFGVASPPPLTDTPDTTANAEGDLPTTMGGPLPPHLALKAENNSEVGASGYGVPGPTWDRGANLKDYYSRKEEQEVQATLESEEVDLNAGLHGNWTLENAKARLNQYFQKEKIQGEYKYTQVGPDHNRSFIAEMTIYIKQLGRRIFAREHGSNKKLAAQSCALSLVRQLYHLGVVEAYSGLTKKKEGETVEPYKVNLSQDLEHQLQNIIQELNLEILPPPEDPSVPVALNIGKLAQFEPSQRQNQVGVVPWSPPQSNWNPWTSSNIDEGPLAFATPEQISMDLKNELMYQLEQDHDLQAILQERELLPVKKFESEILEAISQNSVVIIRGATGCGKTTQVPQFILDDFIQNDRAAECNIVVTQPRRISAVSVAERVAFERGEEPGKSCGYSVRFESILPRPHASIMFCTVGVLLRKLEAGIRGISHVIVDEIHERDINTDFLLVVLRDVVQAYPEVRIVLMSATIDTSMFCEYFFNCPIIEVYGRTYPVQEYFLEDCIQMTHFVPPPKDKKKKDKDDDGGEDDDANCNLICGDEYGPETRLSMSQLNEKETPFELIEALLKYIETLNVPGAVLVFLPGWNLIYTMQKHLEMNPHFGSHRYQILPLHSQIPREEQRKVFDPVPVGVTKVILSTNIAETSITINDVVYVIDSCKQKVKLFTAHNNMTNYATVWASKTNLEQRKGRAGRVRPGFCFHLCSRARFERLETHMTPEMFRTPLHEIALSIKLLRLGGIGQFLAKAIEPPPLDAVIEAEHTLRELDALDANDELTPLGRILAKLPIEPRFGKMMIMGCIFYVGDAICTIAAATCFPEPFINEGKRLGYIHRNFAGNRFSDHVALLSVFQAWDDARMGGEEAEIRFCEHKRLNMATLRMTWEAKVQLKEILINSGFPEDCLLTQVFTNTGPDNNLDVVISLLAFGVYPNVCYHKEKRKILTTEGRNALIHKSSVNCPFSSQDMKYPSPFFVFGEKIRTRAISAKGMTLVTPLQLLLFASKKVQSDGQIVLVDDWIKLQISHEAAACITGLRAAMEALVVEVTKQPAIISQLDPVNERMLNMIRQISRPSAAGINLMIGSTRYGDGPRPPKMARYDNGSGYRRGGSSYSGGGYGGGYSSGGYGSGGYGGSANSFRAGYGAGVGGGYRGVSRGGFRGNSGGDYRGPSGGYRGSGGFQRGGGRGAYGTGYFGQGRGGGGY

B1: Un-tagged p125 subunit of Pol δ (enzyme, human, UniProt P28340 1-1107, looked up)
chain: MDGKRRPGPGPGVPPKRARGGLWDDDDAPRPSQFEEDLALMEEMEAEHRLQEQEEEELQSVLEGVADGQVPPSAIDPRWLRPTPPALDPQTEPLIFQQLEIDHYVGPAQPVPGGPPPSRGSVPVLRAFGVTDEGFSVCCHIHGFAPYFYTPAPPGFGPEHMGDLQRELNLAISRDSRGGRELTGPAVLAVELCSRESMFGYHGHGPSPFLRITVALPRLVAPARRLLEQGIRVAGLGTPSFAPYEANVDFEIRFMVDTDIVGCNWLELPAGKYALRLKEKATQCQLEADVLWSDVVSHPPEGPWQRIAPLRVLSFDIECAGRKGIFPEPERDPVIQICSLGLRWGEPEPFLRLALTLRPCAPILGAKVQSYEKEEDLLQAWSTFIRIMDPDVITGYNIQNFDLPYLISRAQTLKVQTFPFLGRVAGLCSNIRDSSFQSKQTGRRDTKVVSMVGRVQMDMLQVLLREYKLRSYTLNAVSFHFLGEQKEDVQHSIITDLQNGNDQTRRRLAVYCLKDAYLPLRLLERLMVLVNAVEMARVTGVPLSYLLSRGQQVKVVSQLLRQAMHEGLLMPVVKSEGGEDYTGATVIEPLKGYYDVPIATLDFSSLYPSIMMAHNLCYTTLLRPGTAQKLGLTEDQFIRTPTGDEFVKTSVRKGLLPQILENLLSARKRAKAELAKETDPLRRQVLDGRQLALKVSANSVYGFTGAQVGKLPCLEISQSVTGFGRQMIEKTKQLVESKYTVENGYSTSAKVVYGDTDSVMCRFGVSSVAEAMALGREAADWVSGHFPSPIRLEFEKVYFPYLLISKKRYAGLLFSSRPDAHDRMDCKGLEAVRRDNCPLVANLVTASLRRLLIDRDPEGAVAHAQDVISDLLCNRIDISQLVITKELTRAASDYAGKQAHVELAERMRKRDPGSAPSLGDRVPYVIISAAKGVAAYMKSEDPLFVLEHSLPIDTQYYLEQQLAKPLLRIFEPILGEGRAEAVLLRGDHTRCKTVLTGKVGGLLAFAKRRNCCIGCRTVLSHQGAVCEFCQPRESELYQKEVSHLNALEERFSRLWTQCQRCQGSLHEDVICTSRDCPIFYMRKKVRKDLEDQEQLLRRFGPPGPEAW
For B1, the binding result is “binds”.
